The record followed here is the supplement of paper PMC12042874.

This data set in a line: amyloid nucleation score (Sup35N fusion, yeast selection) (log enrichment); library NNK1; higher = more nucleation; inactive = no reads after selection. The gist of the method: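 The nucleation score, computed with DiMSum, is the log enrichment of output over input reads, centred on the mode score of non-aggregating sequences. Sequences with under 100 input reads were dropped. Reads were generated by Illumina sequencing of plasmid inserts from psi-negative yeast with Sup35N fused to peptides of 20 random codons, induced with 100 μM copper sulfate for 24 hours and grown 7 days at 30°C on medium lacking adenine and uracil.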

± gives the uncertainty stated by the source.

Consider CVSGVDLYRGSLGACGW, for which the amyloid nucleation score entry is “inactive”.

As to IYNTYPTRRLRLQRGYYSME, the amyloid nucleation score is -0.607 ± 1.5.

Turning to LSLILFVCRIYTYSCSHRAL, the amyloid nucleation score stood at 0 ± 0.36.

Consider YSRLSCWYYAPGVSLGVIKW, for which the amyloid nucleation score is 0.483 ± 0.48. As to VIKSRP, the amyloid nucleation score is 0.639 ± 0.42. For FCCCNRLYQGRELWVKLVNR the value was 4.94 ± 0.06; for RGVYVWKGSSLH, -0.377 ± 1.1; for RKSLTGYKYCMKWGTIVAPN, 0.745 ± 0.59. LYYDSLYCHSFLWYGSLVLS showed an amyloid nucleation score of -0.06 ± 0.38.

With DKAGNGQNGATGWRTMALSG, the amyloid nucleation score was 0.777 ± 1.2. Under WFSYYLLFRYNDNLSRAERS stands 0.456 ± 0.61. For YGGMDS the value was 0.132 ± 0.5. Regarding RNLQILQDYKPSSNQCGRKE, the amyloid nucleation score is -0.885 ± 0.71. In turn, LLYTVY registered an amyloid nucleation score of -0.849 ± 1.2. For MSRRWV, the amyloid nucleation score was -1.01 ± 0.79.

With SLFKNR, the amyloid nucleation score was determined as 0.171 ± 0.61. Regarding RVTVIIFTLSRGYIIMSRNR, the amyloid nucleation score is -1.12 ± 1.1.

In turn, NKWLRCARGTVHWYAAIVGH had an amyloid nucleation score of -0.942 ± 1.1. The substance TKLVLWLVA came in with an amyloid nucleation score of -0.429 ± 0.71. With RMYWVDFAGLFIDCL, the amyloid nucleation score entry was “inactive”. As for SNFHRNVYRGYRV, the amyloid nucleation score result is “inactive”. For STRFPRLDALNGKKFYRKNT, the amyloid nucleation score stood at 0.157 ± 0.66. For QRFLHVESYESCLVSVSNLS the value was -0.752 ± 1.9. TGCRHFLQVCSVHRRRGSVC yielded an amyloid nucleation score of 0.022 ± 0.78. In turn, MIWAEQCVMWPGACVMVIK showed an amyloid nucleation score of 4.64 ± 0.09. With NSRNVCFWYVNCCLVHGILG, the amyloid nucleation score came to 7.543 ± 0.067.

LSEWNPSLVCMERTLHCS: the amyloid nucleation score worked out at 0.493 ± 0.25.

As to GQTITP, the amyloid nucleation score is -0.689 ± 1. For NTNYGLIQFGILLCRFC, the amyloid nucleation score is 6.814 ± 0.052. For YNLWIGLCRIMEEVILGGT the value was -0.863 ± 0.61. For YLSFSSAHDDIEWVGISCR the value was “inactive”; for LDINDTMYETNCFG, -0.488 ± 0.58; for LSLDRNVATHKGSYPEWDNF, 0.752 ± 0.23. For NNMRVLLRFLSVVLGSGEVR the value was 1.01 ± 0.67; for EQRKRDHSRASSVSLKRYMG, 0.657 ± 0.53; for CMSVVNLRCPDRTLVSLLPY, -0.326 ± 1.1.

Take RLFRNTPSDFTFVYTCGRDA: the amyloid nucleation score turned out to be 0.497 ± 0.57.

The substance AWGRLAGYRRGSWMYYCCNS yielded an amyloid nucleation score of 0.435 ± 0.82. Under LWNCKIVVWSFIGSVCTTGK stands 2.29 ± 0.19; under NTKWLMGSLSIIVCMPKSYW, 6.294 ± 0.045. For SPTIVIKHRLNLESKRGYKV, the amyloid nucleation score was -0.216 ± 0.44. Consider TAFFCRFPSCGGYIAYRSYV, for which the amyloid nucleation score was -1 ± 1.2.

LLLYLTLAIGSRLCRELPQR: the amyloid nucleation score came out at 0.523 ± 0.43. Under KYKESMYLRLCFRYVWTNYS stands 0.441 ± 0.61. Under ILLICYGSCAPNNMVSASTD stands -0.959 ± 0.84; under MFRNI, 0.227 ± 0.26. Take AHCLECGMNVNGTIF: the amyloid nucleation score is -0.81 ± 1.6. Under FLGLCS stands -0.278 ± 0.4; under LTYLNMALVCRFFYVFRHDW, 0.799 ± 0.57. Take RSNYVDVSGLSYGGLIAL: the amyloid nucleation score entry is “inactive”. Under GWNVTEIYFFMWVRITSGWM stands 2.27 ± 0.19. For LMSLVNPTRVSLFFDH the value was -0.11 ± 0.68; for VDGMGYDLIMCLYYNGLWAN, 0.515 ± 0.54. For the substance WRGISVQAVRRLCAKNKSSR, the amyloid nucleation score came to 1.25 ± 0.85. Under PYLTICKIDYFYYLGRDSFF stands 4.47 ± 0.055; under SLDVICPGVYLEMLGRESIL, -0.416 ± 0.84. In turn, INLLVPFQNESVLELNATEW came in with an amyloid nucleation score of 0.772 ± 0.51. Substance KRSSFYHWQWHGKSL gave an amyloid nucleation score of -0.718 ± 0.51. Regarding LIDLSSIKSWHVFSKALCGR, the amyloid nucleation score is 0.006 ± 0.27. Under VTTRLPIYRVKF stands 0.228 ± 0.37; under RLFPDAMDSRRYIKWQRVV, 0.215 ± 0.42. Under FHLSDGDWYCHVESVTWRAC stands 0.375 ± 0.87; under RNCLFVFGSLGYCSERAYKL, 6.7 ± 0.087. For QNFWALGPIRRIYFVNVITN the value was 7.315 ± 0.06. In turn, SYVRLFERFWVNFRSHMGNC had an amyloid nucleation score of 0.014 ± 0.52.

As for QISNRYPLVRPTLLFCGFPF, the amyloid nucleation score was -0.224 ± 0.4. For IKDNITGKSSYGM the value was 0.418 ± 0.32.

With QTSDTNWGVLFTVYFLCQDM, the amyloid nucleation score is -0.059 ± 0.67.

With YMVHMK, the amyloid nucleation score was 0.121 ± 0.76. On to YIFENLARAPMLQ, for which the amyloid nucleation score came out at 0.259 ± 0.74. AVELAKSPLWIPKLGYVMNQ came in with an amyloid nucleation score of 0.233 ± 0.48. With YILDGESAYFVLLYEKVYFS, the amyloid nucleation score is -0.403 ± 0.53. HRGVLQLR showed an amyloid nucleation score of 0.764 ± 0.84. Under PCIVKYRNSGLHNYRIRLNR stands -1.12 ± 0.97; under GCGFS, -0.126 ± 0.4. Under CTIWPSQDGRGCTLCGSRL stands 0.348 ± 0.75; under WWDAEFGGKSRAS, -0.012 ± 0.57. As for YYLSCNDSKGYSMRQFMYDV, the amyloid nucleation score was -0.139 ± 0.81. With YLRVNAHMLDYSF, the amyloid nucleation score is -0.513 ± 1. For IRGTLT the value was -1.42 ± 2.1; for VTMVGRSLKLLMTYETFNTW, -0.21 ± 0.24; for WGLSQSLCHSRNNLHNWISG, 0.207 ± 0.53. TCRNFRHG came in with an amyloid nucleation score of -0.542 ± 0.57. For CMLREPKRKYPVKIMCSLLV the value was “inactive”.

Substance VRGLWFYN yielded an amyloid nucleation score of 0.088 ± 0.72. For DNGGFDPWWCWNRLRWWRGG the value was 0.248 ± 0.38; for VVDMTVGFENARCGMREVWT, -0.328 ± 1.3. As to KTLRNNLLFIQSTPK, the amyloid nucleation score amounted to 0.1 ± 0.28. For KYRDLGSFMQSWAARHGTLL the value was -0.226 ± 0.68.

LAFTSLSNLYEDMCYQDWMV yielded an amyloid nucleation score of 1.82 ± 0.36.

Regarding GFNKSSSGFVSSNGDIDYWD, the amyloid nucleation score was -1.68 ± 2.1. Turning to GNDLNRREVELGLNSIYKSY, the amyloid nucleation score was 0.711 ± 0.73. For VLFYQF the value was -0.382 ± 0.69; for LWPEPVSRSIHSRSH, 0.976 ± 0.55. LYSDPKVCHN gave an amyloid nucleation score of 4.74 ± 0.065. Under IFILIRYWHCITSSPDVGFG stands -0.246 ± 0.61; under YAGVRLWRRVWRAKTACSVA, 0.169 ± 0.56; under DKWLPIFTGGQLLSNLIFFC, 0.832 ± 0.18. DTECRGMKVELHRTHRMGKF: the amyloid nucleation score was -0.179 ± 0.62.

Substance VRAFGYDGLHLVITCYHCRH returned an amyloid nucleation score of 0.726 ± 0.77. In turn, LAGNVS showed an amyloid nucleation score of 0.503 ± 0.67.

In the case of PLPVNPYPTHATIGWPRISG, the amyloid nucleation score is -0.427 ± 0.55. Under NVSNLGSLMSTYGESCLVNF stands “inactive”; under TVRGCRCLAFPWFNG, 0.5 ± 0.48; under FKWLTVRGNDRGILDDG, -0.158 ± 0.52.

Regarding ASRMFMSFLYYSMLLWLLNV, the amyloid nucleation score is -1.66 ± 0.85.

In the case of FLKLFHLRGFLYG, the amyloid nucleation score result was “inactive”. For NFTNFW the value was -0.732 ± 0.56. With VVLWLVDFPSPCPELKNLHF, the amyloid nucleation score result is “inactive”.

In turn, FCYFRVFVKSILDDWN showed an amyloid nucleation score of 0.278 ± 0.31. As to GIWCFACMSKFMYTRFSYN, the amyloid nucleation score is -1.02 ± 0.67. In turn, PTPEANAIKGLYQRGNCVYG showed an amyloid nucleation score of -0.515 ± 1. For the substance CLIVKRIFFYLNYHKKVELL, the amyloid nucleation score was -0.573 ± 1.4. For LHKIHNAIDILS the value was 0.504 ± 0.56; for GYGWFLCTIHVQKLVCWPTL, -0.114 ± 1.1. CFFMEFYVPNSIIIYVRTPV yielded an amyloid nucleation score of -1.89 ± 0.96. Under LLDVLMDGRFSFVQRYCRAD stands 1.05 ± 0.2; under GGFFICQGDTRVV, 0.222 ± 0.58; under EGVVMRISWKNTNGHVYEKG, 2.06 ± 0.23. Under DLSSESHVFLCVAL stands -0.711 ± 2.1; under GSQMYNVHVVCVT, 0.154 ± 0.73. FLWIYLSNTVLG displayed an amyloid nucleation score of -0.535 ± 0.33. For IRTPYIWLTCRGPYEVRRWD the value was -0.247 ± 0.69. In turn, YFSFLDNGGMPYVVVDYGLC yielded an amyloid nucleation score of 0.042 ± 0.85. For the substance SIFRTKTTFLRNVQLEWLGG, the amyloid nucleation score was -0.211 ± 0.86. With IGVKVTY, the amyloid nucleation score was -0.796 ± 0.53. Regarding VLATGVCACTGVYTFMTWWV, the amyloid nucleation score was -0.455 ± 0.47. As to KLWVNNQS, the amyloid nucleation score was found to be 0.198 ± 0.57. TRYMICSL yielded an amyloid nucleation score of 0.121 ± 0.6.

In turn, VQFGQIIEWVFHMLVSTTTI returned an amyloid nucleation score of -0.022 ± 0.36. Turning to LRVNGEKIKASLPFEGD, the amyloid nucleation score came to 0.197 ± 0.51.

As to WLVHIHRTSSISYILCLDLG, the amyloid nucleation score entry is “inactive”.

YFFITRAEVSDVVLLLCVCC: the amyloid nucleation score was -0.158 ± 0.82. Under LFKYYNWVGTLVTYIMIYVW stands -1.62 ± 0.62; under IVTCESGCRLKSSRDKCPSR, 0.284 ± 0.59.

For SRFWGER, the amyloid nucleation score was found to be 0.801 ± 0.62. Under SRMWR stands -0.068 ± 0.45. For SLRVTLTGQTDLASEFQWWL, the amyloid nucleation score result was “inactive”. GSMDCLYVSYLGNYENRYRG had an amyloid nucleation score of 0.232 ± 0.79. Under HILRIWLRGLWMILYRTYEN stands -0.513 ± 0.84.
